Patent publication EP1591456A1 (Genentech Inc., dated 2005)

Target: T1, recombinant human DAF (human, UniProt P08174 35-353, limits assumed)
T1 construct: also called recombinant human decay accelerating factor; CD55
T1 sequence (looked up): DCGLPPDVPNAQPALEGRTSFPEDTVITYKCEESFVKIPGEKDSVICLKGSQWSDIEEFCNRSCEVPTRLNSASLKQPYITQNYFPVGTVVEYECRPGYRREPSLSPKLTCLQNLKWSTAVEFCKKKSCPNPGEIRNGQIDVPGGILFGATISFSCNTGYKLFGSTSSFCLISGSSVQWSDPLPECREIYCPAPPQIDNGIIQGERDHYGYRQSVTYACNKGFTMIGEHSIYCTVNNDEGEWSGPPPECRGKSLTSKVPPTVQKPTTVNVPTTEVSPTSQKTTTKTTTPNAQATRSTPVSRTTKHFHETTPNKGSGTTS
Assay: SPR (BIACORE 1000), recombinant human DAF on CM-5 chip, LU30 scFv 25-100 nM injected

B1: LU30 scFv fragment (scFv, V domains shown)
VH: QVKLQESGGGLVQPGGSLKLSCAASGFTFSGYGMSWIRQTPDKRLEWVATINSGGSYTYYSDSVKGRFTISRDNVKNTLYLQMSSLKSEDTAMYYCARRNGTLYYYLMDYWGRGTLVTVSS
VL: QSVLTQPPSASGSPGQSVTISCTGTSSDVGGYNYVSWYQQHPGKAPKFMIYDVSKRPSGVSNRFSGSKSGNTASLTISGVQAEDEADYYCSSYTSASTVIFGGGTKLTVL
notes: Human scFv from a naive phage library (Vaughan et al.), secreted from E. coli and purified by its His tag; The full scFv is said to be under GenBank AF117206; also called clone LU30
Question: With B1 as the binder, how does the Kd read?
Answer: 13 nM

Question: What about the koff of the same binder?
Answer: 0.0045 s⁻¹

Question: And the kon?
Answer: 340000 M⁻¹ s⁻¹
